Earlier results, collected in article PMC10609526.

Target: DmsA Tat signal peptide (Escherichia coli) (UniProt P18775)
UniProt P18775, sequence (P18775 1-45): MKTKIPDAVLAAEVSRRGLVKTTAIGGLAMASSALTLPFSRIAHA

DmsD (from UniProt P69853)
Kd: 220 nM
